Experimental data: publication PMC7997048

How the values were obtained:
[1] = target: ephrin-B2 (Homo sapiens) (UniProt P52799); settings: cited from earlier work
[2] = target: ephrin-B2-Fc (extracellular region of murine ephrin-B2, Fc fusion) (murine) (UniProt P52800); assay: SEC; Superdex 200 FPLC of the EphB6-ECD/ephrin-B2 complex, micromolar concentration range
[3] = target: ephrin-B2-Fc (extracellular region of murine ephrin-B2, Fc fusion) (murine) (UniProt P52800); assay: BLI; BLItz instrument; Protein-A biosensor loaded with 50 ug/ml purified Fc-tagged ephrin-B2, washed with HBS; EphB6-ECD at 100 nM and 1 uM, association and dissociation 3 min each; apparent Kd

Chain of UniProt P52799 (P52799 28-229): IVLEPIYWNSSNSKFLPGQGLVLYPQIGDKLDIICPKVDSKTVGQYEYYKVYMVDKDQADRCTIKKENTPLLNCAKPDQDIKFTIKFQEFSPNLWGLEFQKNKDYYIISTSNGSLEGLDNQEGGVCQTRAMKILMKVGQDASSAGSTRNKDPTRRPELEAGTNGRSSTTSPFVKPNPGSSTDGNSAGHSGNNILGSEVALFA

stoichiometry N [2] | Kd [3] [nM] | Substance | Kd [1] [nM]
– | – | EphB2 (from UniProt P29323) | 8.6
1 | 88.5 | EphB6 receptor ectodomain (EphB6-ECD) (from UniProt O15197 32-594) (domain or fragment) | –
